Measurements reported in PMC5027287, “Real-time observation of DNA recognition and rejection by the RNA-guided endonuclease Cas9”.

Key:
Cas9 (SpCas9) [1] = target: T1, Cas9 (SpCas9) (Streptococcus pyogenes, UniProt Q99ZW2 1-1368); assay: smFRET; 20 nM Cas9-RNA; koff <0.006 s-1, lifetime >3 min (photobleaching limit); Immobilized biotin/Cy3 DNA, 20 nM Cas9-RNA (Cy5 crRNA), 0.1 s frames; imaging buffer, pH and temperature not in the material; kon ~6e6 M-1 s-1; details: protein: recombinant, tags: His10-MBP removed by TEV, label: Cy3 (DNA), biotin (DNA), DNA duplex 1:2, 5' overhang 2 nt on strand 1, crRNA 3 : tracrRNA 4, guide pairs strand 2
T1 sequence (Q99ZW2 whole entry): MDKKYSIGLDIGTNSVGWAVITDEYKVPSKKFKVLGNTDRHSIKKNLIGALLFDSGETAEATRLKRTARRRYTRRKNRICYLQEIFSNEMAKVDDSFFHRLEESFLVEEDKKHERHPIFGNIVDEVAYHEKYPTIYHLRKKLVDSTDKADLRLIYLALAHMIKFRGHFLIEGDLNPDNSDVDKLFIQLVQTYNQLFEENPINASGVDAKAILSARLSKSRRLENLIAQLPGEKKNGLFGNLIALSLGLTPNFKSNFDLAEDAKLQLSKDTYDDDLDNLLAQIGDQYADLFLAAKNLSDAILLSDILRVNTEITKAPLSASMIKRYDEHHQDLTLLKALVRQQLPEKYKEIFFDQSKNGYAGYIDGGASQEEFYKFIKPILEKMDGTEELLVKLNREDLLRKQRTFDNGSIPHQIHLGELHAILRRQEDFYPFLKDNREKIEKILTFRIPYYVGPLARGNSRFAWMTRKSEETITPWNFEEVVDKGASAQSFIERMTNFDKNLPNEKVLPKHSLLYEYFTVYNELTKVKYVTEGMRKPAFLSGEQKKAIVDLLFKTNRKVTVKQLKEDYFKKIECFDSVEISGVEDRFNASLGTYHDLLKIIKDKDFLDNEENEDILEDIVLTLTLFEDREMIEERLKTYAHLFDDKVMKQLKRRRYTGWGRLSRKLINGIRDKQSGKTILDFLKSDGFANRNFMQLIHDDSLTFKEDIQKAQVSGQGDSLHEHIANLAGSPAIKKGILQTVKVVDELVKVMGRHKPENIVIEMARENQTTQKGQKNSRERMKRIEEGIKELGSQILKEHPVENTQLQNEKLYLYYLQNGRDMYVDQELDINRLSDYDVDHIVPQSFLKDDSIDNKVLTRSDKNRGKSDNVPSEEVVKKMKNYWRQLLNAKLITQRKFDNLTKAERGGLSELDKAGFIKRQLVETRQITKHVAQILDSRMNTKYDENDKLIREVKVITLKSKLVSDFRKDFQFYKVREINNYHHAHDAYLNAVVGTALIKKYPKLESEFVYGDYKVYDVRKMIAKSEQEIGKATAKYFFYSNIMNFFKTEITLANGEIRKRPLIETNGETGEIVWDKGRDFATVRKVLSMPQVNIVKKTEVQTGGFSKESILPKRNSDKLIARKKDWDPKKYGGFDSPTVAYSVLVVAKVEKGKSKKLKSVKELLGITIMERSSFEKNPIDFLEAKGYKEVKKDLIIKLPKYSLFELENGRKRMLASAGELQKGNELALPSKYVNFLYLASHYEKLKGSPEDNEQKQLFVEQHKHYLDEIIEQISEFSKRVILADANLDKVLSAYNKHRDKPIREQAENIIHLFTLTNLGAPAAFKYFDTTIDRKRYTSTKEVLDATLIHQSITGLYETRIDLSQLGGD

Cas9 (SpCas9) [2] = target: T1, Cas9 (SpCas9); assay: smFRET; 20 nM; bound fraction as cognate; Immobilized biotin/Cy3 DNA, 20 nM Cas9-RNA (Cy5 crRNA), 0.1 s frames; imaging buffer, pH and temperature not in the material; kon ~6e6 M-1 s-1; details: protein: recombinant, tags: His10-MBP removed by TEV, label: Cy3, biotin, as N1
Cas9 (SpCas9) [3] = target: T1, Cas9 (SpCas9); assay: smFRET; 20 nM; bound fraction as cognate; bound lifetime ~16 s; Immobilized biotin/Cy3 DNA, 20 nM Cas9-RNA (Cy5 crRNA), 0.1 s frames; imaging buffer, pH and temperature not in the material; kon ~6e6 M-1 s-1; details: protein: recombinant, tags: His10-MBP removed by TEV, label: Cy3, biotin, as N1

Binder	binding result (Cas9 (SpCas9) [2])	other results
Cognate DNA + guide RNA (mixed) DNA 1: AACGCAACGTCGTCAGCTGTCTGCACAGCAGAAATCTCTGCTGACGCATAAAGATGAGACGCTGGAGTACAAACGTCAGCTTGCT DNA 2: AGCAAGCTGACGTTTGTACTCCAGCGTCTCATCTTTATGCGTCAGCAGAGATTTCTGCTGTGCAGACAGCTGACGACGTTGCG RNA 1: GACGCAUAAAGAUGAGACGCGUUUUAGAGCUAUGCUGUUUUG RNA 2: GGACAGCAUAGCAAGUUAAAAUAAGGCUAGUCCGUUAUCAACUUGAAAAAGUGGCACCGAGUCGGUGCUUUUU	–	binding result (Cas9 (SpCas9) [1]): binds
17-20mm (mixed) DNA 1: AACGCAACGTCGTCAGCTGTCTGCACAGCAGAAATCTCTGCTCTGCCATAAAGATGAGACGCTGGAGTACAAACGTCAGCTTGCT DNA 2: AGCAAGCTGACGTTTGTACTCCAGCGTCTCATCTTTATGGCAGAGCAGAGATTTCTGCTGTGCAGACAGCTGACGACGTTGCG RNA 1: GACGCAUAAAGAUGAGACGCGUUUUAGAGCUAUGCUGUUUUG RNA 2: GGACAGCAUAGCAAGUUAAAAUAAGGCUAGUCCGUUAUCAACUUGAAAAAGUGGCACCGAGUCGGUGCUUUUU	binds	–
12-20mm (mixed) DNA 1: AACGCAACGTCGTCAGCTGTCTGCACAGCAGAAATCTCTGCTCTGCGTATTAGATGAGACGCTGGAGTACAAACGTCAGCTTGCT DNA 2: AGCAAGCTGACGTTTGTACTCCAGCGTCTCATCTAATACGCAGAGCAGAGATTTCTGCTGTGCAGACAGCTGACGACGTTGCG RNA 1: GACGCAUAAAGAUGAGACGCGUUUUAGAGCUAUGCUGUUUUG RNA 2: GGACAGCAUAGCAAGUUAAAAUAAGGCUAGUCCGUUAUCAACUUGAAAAAGUGGCACCGAGUCGGUGCUUUUU	binds	–
9-20mm (mixed) DNA 1: AACGCAACGTCGTCAGCTGTCTGCACAGCAGAAATCTCTGCTCTGCGTATTTCTTGAGACGCTGGAGTACAAACGTCAGCTTGCT DNA 2: AGCAAGCTGACGTTTGTACTCCAGCGTCTCAAGAAATACGCAGAGCAGAGATTTCTGCTGTGCAGACAGCTGACGACGTTGCG RNA 1: GACGCAUAAAGAUGAGACGCGUUUUAGAGCUAUGCUGUUUUG RNA 2: GGACAGCAUAGCAAGUUAAAAUAAGGCUAGUCCGUUAUCAACUUGAAAAAGUGGCACCGAGUCGGUGCUUUUU	–	binding result (Cas9 (SpCas9) [3]): binds
11-20mm (mixed) DNA 1: AACGCAACGTCGTCAGCTGTCTGCACAGCAGAAATCTCTGCTCTGCGTATTTGATGAGACGCTGGAGTACAAACGTCAGCTTGCT DNA 2: AGCAAGCTGACGTTTGTACTCCAGCGTCTCATCAAATACGCAGAGCAGAGATTTCTGCTGTGCAGACAGCTGACGACGTTGCG RNA 1: GACGCAUAAAGAUGAGACGCGUUUUAGAGCUAUGCUGUUUUG RNA 2: GGACAGCAUAGCAAGUUAAAAUAAGGCUAGUCCGUUAUCAACUUGAAAAAGUGGCACCGAGUCGGUGCUUUUU	binds	–
10-20mm (mixed) DNA 1: AACGCAACGTCGTCAGCTGTCTGCACAGCAGAAATCTCTGCTCTGCGTATTTCATGAGACGCTGGAGTACAAACGTCAGCTTGCT DNA 2: AGCAAGCTGACGTTTGTACTCCAGCGTCTCATGAAATACGCAGAGCAGAGATTTCTGCTGTGCAGACAGCTGACGACGTTGCG RNA 1: GACGCAUAAAGAUGAGACGCGUUUUAGAGCUAUGCUGUUUUG RNA 2: GGACAGCAUAGCAAGUUAAAAUAAGGCUAGUCCGUUAUCAACUUGAAAAAGUGGCACCGAGUCGGUGCUUUUU	binds	–
13-20mm (mixed) DNA 1: AACGCAACGTCGTCAGCTGTCTGCACAGCAGAAATCTCTGCTCTGCGTATAAGATGAGACGCTGGAGTACAAACGTCAGCTTGCT DNA 2: AGCAAGCTGACGTTTGTACTCCAGCGTCTCATCTTATACGCAGAGCAGAGATTTCTGCTGTGCAGACAGCTGACGACGTTGCG RNA 1: GACGCAUAAAGAUGAGACGCGUUUUAGAGCUAUGCUGUUUUG RNA 2: GGACAGCAUAGCAAGUUAAAAUAAGGCUAGUCCGUUAUCAACUUGAAAAAGUGGCACCGAGUCGGUGCUUUUU	binds	–
